Reference: article PMC5806882, “Structural and biochemical characterization of the biuret hydrolase (BiuH) from the cyanuric acid catabolism pathway of Rhizobium leguminasorum bv. viciae 3841” (PLoS ONE, 2018)

Tests used:
NC(=O)NC(N)=O [1] = test system: T1, NC(=O)NC(N)=O; assay: GDH-coupled steady-state kinetics (KM); type: biochemical, Rhizobium johnstonii; settings: active site
T1 construct: wild type, N-terminal 6xHis-tag

NC(=O)NC(N)=O [2] = assay: GDH-coupled steady-state kinetics (KM); type: biochemical, Rhizobium johnstonii; settings: active site

Sequence of biuret hydrolase (BiuH) (Rhizobium johnstonii 3841; Q215N) (chain, as listed by the source Q215N): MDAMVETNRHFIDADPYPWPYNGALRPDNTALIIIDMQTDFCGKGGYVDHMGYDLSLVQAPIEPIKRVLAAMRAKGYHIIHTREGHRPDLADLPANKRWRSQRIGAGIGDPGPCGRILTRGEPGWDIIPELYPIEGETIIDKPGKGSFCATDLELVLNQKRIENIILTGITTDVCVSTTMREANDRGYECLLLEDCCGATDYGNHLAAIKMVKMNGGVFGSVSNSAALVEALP
Sequence of biuret hydrolase (BiuH) (Rhizobium johnstonii 3841; F41W) (chain, as listed by the source F41W): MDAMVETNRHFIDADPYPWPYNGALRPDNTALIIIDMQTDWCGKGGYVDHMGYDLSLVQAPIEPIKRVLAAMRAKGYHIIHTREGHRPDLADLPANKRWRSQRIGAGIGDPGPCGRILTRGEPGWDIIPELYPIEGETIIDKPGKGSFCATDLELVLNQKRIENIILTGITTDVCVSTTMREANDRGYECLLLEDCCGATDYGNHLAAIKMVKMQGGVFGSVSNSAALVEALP
Sequence of biuret hydrolase (BiuH) (Rhizobium johnstonii 3841; K142R) (chain, as listed by the source K142R): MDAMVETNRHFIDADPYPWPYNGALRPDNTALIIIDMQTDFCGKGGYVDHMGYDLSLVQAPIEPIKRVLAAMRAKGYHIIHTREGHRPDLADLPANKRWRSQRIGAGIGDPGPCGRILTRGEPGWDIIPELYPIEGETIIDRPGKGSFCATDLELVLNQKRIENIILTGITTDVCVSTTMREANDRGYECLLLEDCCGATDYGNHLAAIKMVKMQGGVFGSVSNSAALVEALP
Sequence of biuret hydrolase (BiuH) (Rhizobium johnstonii 3841) (chain, as listed by the source): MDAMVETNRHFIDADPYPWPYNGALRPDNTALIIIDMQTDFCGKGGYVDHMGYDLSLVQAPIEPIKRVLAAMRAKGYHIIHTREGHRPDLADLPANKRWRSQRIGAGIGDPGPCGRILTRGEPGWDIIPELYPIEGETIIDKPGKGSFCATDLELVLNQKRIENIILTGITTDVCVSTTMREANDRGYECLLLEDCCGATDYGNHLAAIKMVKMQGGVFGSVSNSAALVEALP

| Substance | Km (NC(=O)NC(N)=O [1]) [µM] | kcat (NC(=O)NC(N)=O [1]) [s⁻¹] | kcat/Km (NC(=O)NC(N)=O [1]) [M⁻¹ s⁻¹] | Km (NC(=O)NC(N)=O [2]) [µM] | kcat (NC(=O)NC(N)=O [2]) [s⁻¹] | kcat/Km (NC(=O)NC(N)=O [2]) [M⁻¹ s⁻¹] |
| --- | --- | --- | --- | --- | --- | --- |
| biuret hydrolase (BiuH) (Rhizobium johnstonii 3841) | 79 ± 7 | 11.9 ± 0.3 | 150000 |  |  |  |
| biuret hydrolase (BiuH) (Rhizobium johnstonii 3841; F41W) |  |  |  | 127 ± 8 | 0.26 ± 0.003 | 2050 |
| biuret hydrolase (BiuH) (Rhizobium johnstonii 3841; K142R) |  |  |  | 139 ± 8 | 0.07 ± 0.001 | 504 |
| biuret hydrolase (BiuH) (Rhizobium johnstonii 3841; Q215N) |  |  |  | 48 ± 2 | 0.19 ± 0.002 | 3960 |
